Where two headings read alike, the source gives them in different places.
Legend:
Assay type in all cases: in vivo, mouse
[1] = test system: post-traumatic OA model (DMM) in male C57BL/6 mice; experiment: DMM OA model: open field test
Description: (§1) Destabilization of the medial meniscus (DMM) surgery was performed on the right knee joint of mice (Glasson S S, et al. Osteoarthritis and cartilage. 2007; 15(9):1061-9). Briefly, a 3 mm longitudinal incision over the distal patella to proximal tibial plateau was made. The joint capsule immediately medial to the patellar tendon was incised with a #15 blade and the joint capsule opened with micro-iris scissors. Blunt dissection of the fat pad over the intercondylar area was then performed to expose the intercondylar region, providing visualization of the meniscotibial ligament of the medial meniscus. Mild hemorrhage from the fat pad upon blunt dissection was controlled by pressure from absorption spears. Sectioning of medial meniscotibial ligament with micro-surgical knife, with the blade directed proximo-laterally, gave destabilization of the medial meniscus (DMM). Sham surgery was performed with the ligament visualized but not transected.
Spontaneous locomotor activity was analyzed using the open-field test. Mice were placed into the center of a chamber 25×25×25 cm to allow free exploration. The experiments were performed for 10 minutes. Total travel distance, and immobility time were measured by computerized analysis. Mice behavior was recorded, and videos were analyzed by use of ANY-maze behavior tracking software (Stoelting Co., Wood Dale, IL, USA).

[2] = test system: post-traumatic OA model (DMM) in male C57BL/6 mice; experiment: DMM OA model: micro-computed tomography of tibia subchondral bone; conditions: eight weeks post-surgery, vs saline-treated DMM mice
Description: as §1
Micro-computed tomography. Following behavioral tests, mice were sacrificed and hindlimbs were dissected immediately and fixed in 4% paraformaldehyde. The structural properties of subchondral bone were evaluated using a 3D reconstruction of μCT imaging system (Brüker SkyScan 1173; Brüker microCT, Kontich, Belgium). Samples were scanned in saline with the following settings: 60 kV, […] beam intensity, 0.5 mm aluminum filter, 0.7° rotation step, 4-frame averaging, 1090 ms integration time, 1024×1024 pixel matrix, and a 10 μm isotropic voxel dimension. After scanning, noise was removed from the images by eliminating disconnected objects smaller than 4 pixels in size. Morphometric analysis was performed on 50 slices extending proximally, beginning with the first slice in which the tibia condyles had fully merged. The subchondral bone was segmented from the cortical shell manually on key slices using a contouring tool, and the contours were morphed automatically to segment the trabecular bone on all slices. The morphometry was reconstructed and analyzed. A grayscale value of 95 in a set of 8-bit slices was set as the threshold and was applied to the specimens after comparing grayscale and binarized images in both groups. After thresholding, the BV/TV (%), Tb.Th (mm), Tb.Sp (mm), and Tb.N (mm^−1) were quantified.

[3] = test system: post-traumatic OA model (DMM) in male C57BL/6 mice
Description: Materials and Methods. Animals and surgery model. The mice used were of C57BL/6 background. The mice were housed in a temperature-controlled room with a light/dark cycle of 12 hours under specific pathogen-free conditions. Food and water were provided ad libitum. Destabilization of the medial meniscus (DMM) surgery was performed on the right knee joint of mice (Glasson S S, et al. Osteoarthritis and cartilage. 2007; 15(9):1061-9). Briefly, a 3 mm longitudinal incision over the distal patella to proximal tibial plateau was made. The joint capsule immediately medial to the patellar tendon was incised with a #15 blade and the joint capsule opened with micro-iris scissors. Blunt dissection of the fat pad over the intercondylar area was then performed to expose the intercondylar region, providing visualization of the meniscotibial ligament of the medial meniscus. Mild hemorrhage from the fat pad upon blunt dissection was controlled by pressure from absorption spears. Sectioning of medial meniscotibial ligament with micro-surgical knife, with the blade directed proximo-laterally, gave destabilization of the medial meniscus (DMM). Sham surgery was performed with the ligament visualized but not transected. Histology. At 8 weeks after the induction of osteoarthritis (OA), the femur and tibia bones isolated from DMM and sham operated mice were fixed in 4% paraformaldehyde for 2 days prior to decalcification with 10% EDTA (pH 7.5) for 3 weeks. The samples were embedded in paraffin, and 5-μm-thick sections were collected on glass slides. Sections were deparaffinized in xylene, followed by a graded series of alcohol washes. To determine the extent of cartilage deterioration, sections were stained with Safranin O/Fast Green. OARSI scoring was performed to evaluate knee joint articular cartilage destruction (Glasson S S, et al. Osteoarthritis and cartilage. 2010; 18 Suppl 3:S17-23). Specifically, both medial femoral condyle and medial tibial plateau were analyzed through three-level sections of the joints and the severity of OA is expressed as the averaged and summed scores for the entire joint. Results. Inhibition of Cx43 hemichannel ameliorates histopathological changes of OA. To investigate the function of Cx43 hemichannel in OA progression, post-traumatic OA model was induced in male C57BL/6 mice by surgically destabilization of the medial meniscus (DMM). The anti-Cx43 hemichannel blocking antibody (M1 antibody) or saline was administered by intraperitoneal injection twice at 30 minutes and four weeks post-surgery (FIG. 1A). Histological staining of Safranin O/Fast Green was utilized to visualize the severity of articular cartilage damage, which was determined using the Osteoarthritis Research Society International (OARSI) scoring system (Glasson S S, et al. Osteoarthritis and cartilage. 2010; 18 Suppl 3:S17-23) by two blinded observers (FIGS. 1B-D). […] Moreover, synovium hyperplasia was quantified by the synovitis score ([…], et al. Pathology, research and practice. 2002; 198(5):317-25; and Huesa C, et al. Annals of the rheumatic diseases. 2016; 75(11):1989-97).

[4] = 4 weeks after DMM, vs saline group
[5] = single i.p. injection, eight weeks after DMM, vs saline

B1: M1 antibody: antibody with variable heavy chain SEQ ID NO: 58 and variable light chain SEQ ID NO: 60; inhibits or blocks opening of Cx43 hemichannel (antibody, V domains shown)
VH: EVQLQQPGAELVKPGASVKLSCKASGYTFTSYYMYWVKQRPGQGLEWIGGINPSNGGTNFNEKFKNKATLTVDKSSSTAYMQLSSLTSEDSAVYYCTREGNPYYTMNYWGQGTSVTVSS
VL: DIVMTQSPSSLSVSAGEKVTMSCKSSQSLLNSGNQKTYLAWYQQKPGQPPKLLIYGASTRESGVPDRFTGSGSGTDFTLTISSVQAEDLAVYYCQNDHSYPFTFGSGTKLEIK
- distance moved (open field) [1, 4]: trend of increased distance moved
- immobility time (open field) [1, 4]: decreased immobility time
- pain responses: reductions in distance traveled and elevations in immobility time (open field) ([1]; 8 weeks after DMM, i.p. twice): suppressed these pain responses
- distance traveled and immobility time in sham mice, saline vs antibody ([1]; sham mice at 8 weeks): No difference
- distance traveled (open field) [1, 5]: significant increase
- immobility time (open field) [1, 5]: reduction
- bone mineral density (BMD) at the tibia subchondral bone [2]: significantly decreased
- bone volume fraction (BV/TV) at the tibia subchondral bone [2]: significantly decreased
- trabecular separation (Tb.Sp) at the tibia subchondral bone [2]: elevated
- trabecular thickness (Tb.Th) at the tibia subchondral bone [2]: significantly decreased
- OARSI scores in medial tibial plateau and medial femoral condyle ([3]; DMM mice, i.p. twice at 30 minutes and four weeks post-surgery, 8 weeks after DMM, vs saline): significant reduction
- Summed OARSI score of MTP and MFC (structural integrity of the articular cartilage) ([3]; DMM mice, i.p. twice, 8 weeks after DMM, three-level sections): significantly improved structural integrity
- pathologic changes in the articular cartilage of sham-operated mice ([3]; mouse, in vivo, ip): did not exhibit pathologic changes
- OARSI scores in medial tibial plateau and medial femoral condyle ([3]; single i.p. injection at 30 minutes post-surgery, eight weeks after DMM): significant reduction
- proteoglycan loss and cartilage erosion (Safranin O/Fast Green) ([3]; single i.p. injection at 30 minutes post-surgery, eight weeks after DMM, vs saline): less proteoglycan loss and cartilage erosion

— US20240076371A1, “COMPOSITIONS AND METHODS FOR TREATING OSTEOARTHRITIS, RHEUMATOID ARTHRITIS, AND JOINT AND TENDON DISORDERS” (BOARD OF REGENTS, THE UNIVERSITY OF TEXAS SYSTEM, priority 2021, published 2024)
